These results are taken from patent US8097443B2, “Nucleotidyltransferases with enhanced nucleotide triphosphate flexibility” (priority 2007, dated 2012).

Common to all, as to experiment: purified protein, by the assay type
Common to all, as to conditions: other: Wild-type RmlA, 10 mM glucose-1-phosphate, 0.05-25 μM enzyme, [NTP] + 5 mM MgCl2, 100 mM Tris-HCl pH 8.0, 37° C.

Series [1] concerns Nc1ncnc2c1ncn2[C@H]1C[C@H](O)[C@@H](COP(=O)(O)OP(=O)(O)OP(=O)(O)O)O1.
For series [2], the system named is Nc1ccn([C@H]2C[C@H](O)[C@@H](COP(=O)(O)OP(=O)(O)OP(=O)(O)O)O2)c(=O)n1.
Series [3] has as its system Nc1ccn([C@@H]2O[C@H](COP(=O)(O)OP(=O)(O)OP(=O)(O)O)[C@@H](O)[C@H]2O)c(=O)n1.
For series [4], the system named is Nc1nc2c(ncn2[C@H]2C[C@H](O)[C@@H](COP(=O)(O)OP(=O)(O)OP(=O)(O)O)O2)c(=O)[nH]1.
The test system of series [5] is Nc1nc2c(ncn2[C@@H]2O[C@H](COP(=O)(O)OP(=O)(O)OP(=O)(O)O)[C@@H](O)[C@H]2O)c(=O)[nH]1.
Series [6] deals with O=c1ccn([C@@H]2O[C@H](COP(=O)(O)OP(=O)(O)OP(=O)(O)O)[C@@H](O)[C@H]2O)c(=O)[nH]1.

Turning to “wt RmlA (glucose-1-phosphate thymidylyltransferase) (Salmonella enterica subsp. enterica serovar Typhimurium str. LT2)”, the Km (as a rule, the concentration of substrate that gives half-maximal velocity) came out at 7.8 ± 0.9 mM in series [1]; 10.5 ± 1.1 mM in series [2]; 13.7 ± 1.1 mM in series [3]; 3.7 ± 0.5 mM in series [4]; 8.5 ± 0.6 mM in series [5]; 4.6 ± 0.7 mM in series [6]. Moreover, the kcat (in general, the maximal rate divided by the concentration of active sites) came out at 1.88 ± 0.083 s⁻¹ in series [1]; 1.22 ± 0.05 s⁻¹ in series [2]; 0.0983 ± 0.0033 s⁻¹ in series [3]; 2.12 ± 0.083 s⁻¹ in series [4]; 0.14 ± 0.0033 s⁻¹ in series [5]; 41 ± 2.17 s⁻¹ in series [6].
